According to patent US20120053225:

Legend:
[1] = biological target: HA-tagged AKT (wild type), P31749
[2] = biological target: HA-tagged AKT Y176F mutant, P31749
[3] = biological target: HA-tagged AKT deletion construct lacking the PH domain, P31749

B1: purified tagged Ack1 expressed in HEK293T cells (protein)
chain: MQPEEGTGWLLELLSEVQLQQYFLRLRDDLNVTRLSHFEYVKNEDLEKIGMGRPGQRRLWEAVKRRKALCKRKSWMSKVFSGKRLEAEFPPHHSQSTFRKTSPAPGGPAGEGPLQSLTCLIGEKDLRLLEKLGDGSFGVVRRGEWDAPSGKTVSVAVKCLKPDVLSQPEAMDDFIREVNAMHSLDHRNLIRLYGVVLTPPMKMVTELAPLGSLLDRLRKHQGHFLLGTLSRYAVQVAEGMGYLESKRFIHRDLAARNLLLATRDLVKIGDFGLMRALPQNDDHYVMQEHRKVPFAWCAPESLKTRTFSHASDTWMFGVTLWEMFTYGQEPWIGLNGSQILHKIDKEGERLPRPEDCPQDIYNVMVQCWAHKPEDRPTFVALRDFLLEAQPTDMRALQDFEEPDKLHIQMNDVITVIEGRAENYWWRGQNTRTLCVGPFPRNVVTSVAGLSAQDISQPLQNSFIHTGHGDSDPRHCWGFPDRIDELYLGNPMDPPDLLSVELSTSRPPQHLGGVKKPTYDPVSEDQDPLSSDFKRLGLRKPGLPRGLWLAKPSARVPGTKASRGSGAEVTLIDFGEEPVVPALRPCAPSLAQLAMDACSLLDETPPQSPTRALPRPLHPTPVVDWDARPLPPPPAYDDVAQDEDDFEICSINSTLVGAGVPAGPSQGQTNYAFVPEQARPPPPLEDNLFLPPQGGGKPPSSAQTAEIFQALQQECMRQLQAPAGSPAPSPSPGGDDKPQVPPRVPIPPRPTRPHVQLSPAPPGEEETSQWPGPASPPRVPPREPLSPQGSRTPSPLVPPGSSPLPPRLSSSPGKTMPTTQSFASDPKYATPQVIQAPGPRAGPCILPIVRDGKKVSSTHYYLLPERPSYLERYQRFLREAQSPEEPTPLPVPLLLPPPSTPAPAAPTATVRPMPQAALDPKANFSTNNSNPGARPPPPRATARLPQRGCPGDGPEAGRPADKIQMAMVHGVTTEECQAALQCHGWSVQRAAQYLKVEQLFGLGLRPRGECHKVLEMFDWNLEQAGCHLLGSWGPAHHKR
AKT Tyr176-phosphorylation (in vitro phosphorylation of purified AKT by Ack1, immunoblot) [1]: purified Ack1 interacted directly with AKT resulting in AKT Tyr176-phosphorylation

B2: endogenous Ack1 of mouse embryo fibroblasts (protein)
chain: MQPEEGTGWLLELLSEVQLQQYFLRLRDDLNITRLSHFEYVKNEDLEKIGMGRPGQRRLWEAVKRRKAMCKRKSWMSKVFSGKRLEAEFPSQHSQSTFRKPSPTPGSLPGEGTLQSLTCLIGEKDLRLLEKLGDGSFGVVRRGEWDAPAGKTVSVAVKCLKPDVLSQPEAMDDFIREVNAMHSLDHRNLIRLYGVVLTLPMKMVTELAPLGSLLDRLRKHQGHFLLGTLSRYAVQVAEGMAYLESKRFIHRDLAARNLLLATRDLVKIGDFGLMRALPQNDDHYVMQEHRKVPFAWCAPESLKTRTFSHASDTWMFGVTLWEMFTYGQEPWIGLNGSQILHKIDKEGERLPRPEDCPQDIYNVMVQCWAHKPEDRPTFVALRDFLLEAQPTDMRALQDFEEPDKLHIQMNDVITVIEGRAENYWWRGQNTRTLCVGPFPRNVVTSVAGLSAQDISQPLQNSFIHTGHGDSDPRHCWGFPDRIDELYLGNPMDPPDLLSVELSTSRPTQHLGRVKREPPPRPPQPAIFTQKTTYDPVSEDPDPLSSDFKRLGLRKPALPRGLWLAKPSARVPGTKADRSSGGEVTLIDFGEEPVVPTPRPCAPSLAQLAMDACSLLDKTPPQSPTRALPRPLHPTPVVDWDARPLPPPPAYDDVAQDEDDFEVCSINSTLVGAGLPAGPSQGETNYAFVPEQAQMPPALEDNLFLPPQGGGKPPSSVQTAEIFQALQQECMRQLQVPTGQLTPSPTPGGDDKPQVPPRVPIPPRPTRPRVELSPAPSGEEETSRWPGPASPPRVPPREPLSPQGSRTPSPLVPPGSSPLPHRLSSSPGKTMPTTQSFASDPKYATPQVIQAPGPRAGPCILPIVRDGRKVSSTHYYLLPERPPYLERYQRFLREAQSPEEPAALPVPPLLPPPSTPAPAAPTATVRPMPQAAPDPKANFSTNNSNPGARPPSLRAAARLPQRGCPGDGQEAARPADKVQMLQAMVHGVTTEECQAALQSHSWSVQRAAQYLKVEQLFGLGLRPRVECHKVLEMFDWNLEQAGCHLLGSCGPAHHKR
AKT Tyr/Ser-phosphorylations (IP and immunoblot) [2]: decreased AKT Tyr/Ser-phosphorylations

B3: activated Ack1 (caAck, L487F mutant) (protein)
chain: MQPEEGTGWLLELLSEVQLQQYFLRLRDDLNVTRLSHFEYVKNEDLEKIGMGRPGQRRLWEAVKRRKALCKRKSWMSKVFSGKRLEAEFPPHHSQSTFRKTSPAPGGPAGEGPLQSLTCLIGEKDLRLLEKLGDGSFGVVRRGEWDAPSGKTVSVAVKCLKPDVLSQPEAMDDFIREVNAMHSLDHRNLIRLYGVVLTPPMKMVTELAPLGSLLDRLRKHQGHFLLGTLSRYAVQVAEGMGYLESKRFIHRDLAARNLLLATRDLVKIGDFGLMRALPQNDDHYVMQEHRKVPFAWCAPESLKTRTFSHASDTWMFGVTLWEMFTYGQEPWIGLNGSQILHKIDKEGERLPRPEDCPQDIYNVMVQCWAHKPEDRPTFVALRDFLLEAQPTDMRALQDFEEPDKLHIQMNDVITVIEGRAENYWWRGQNTRTLCVGPFPRNVVTSVAGLSAQDISQPLQNSFIHTGHGDSDPRHCWGFPDRIDELYFGNPMDPPDLLSVELSTSRPPQHLGGVKKPTYDPVSEDQDPLSSDFKRLGLRKPGLPRGLWLAKPSARVPGTKASRGSGAEVTLIDFGEEPVVPALRPCAPSLAQLAMDACSLLDETPPQSPTRALPRPLHPTPVVDWDARPLPPPPAYDDVAQDEDDFEICSINSTLVGAGVPAGPSQGQTNYAFVPEQARPPPPLEDNLFLPPQGGGKPPSSAQTAEIFQALQQECMRQLQAPAGSPAPSPSPGGDDKPQVPPRVPIPPRPTRPHVQLSPAPPGEEETSQWPGPASPPRVPPREPLSPQ
Tyr-phosphorylation of AKT deletion constructs (IP with HA antibodies, immunoblot with pTyr antibodies) [3]: AKT deletion construct lacking the PH domain (ΔPH-AKT) exhibited significant decrease in Tyr-phosphorylation
